Measurements published in US6723321B2 (priority 1998, dated 2004).
Read-outs that look alike come from different tables or passages of the source.

Assays:
[1] = target: T1, RhlI (Pseudomonas aeruginosa, UniProt P54291); assay: radioactive in vitro assay for RhlI activity (C14-labeled SAM); assay type: biochemical; conditions: for Activity in radioactive assay: potential acyl group substrates, 61 μM SAM as co-substrate
[2] = target: T1, RhlI; assay type: biochemical
[3] = target: T1, RhlI; assay type: biochemical; conditions: acyl substrate varied, SAM held at 95 μM; for Km: read-out: Apparent Km
[4] = tested on: CCCC(=O)SCCNC(=O)CCNC(=O)[C@H](O)C(C)(C)COP(=O)(O)OP(=O)(O)OC[C@H]1O[C@@H](n2cnc3c(N)ncnc32)[C@H](O)[C@@H]1OP(=O)(O)O; assay: purified protein, by the assay type; conditions: other: acyl substrate varied, SAM held at 95 μM
[5] = target: T1, RhlI; assay type: biochemical; conditions: 61 μM SAM as co-substrate; tested in the R. solanacearum bioassay
[6] = potential acyl group substrates, 61 μM SAM as co-substrate

T1 sequence (P54291 whole entry, looked up): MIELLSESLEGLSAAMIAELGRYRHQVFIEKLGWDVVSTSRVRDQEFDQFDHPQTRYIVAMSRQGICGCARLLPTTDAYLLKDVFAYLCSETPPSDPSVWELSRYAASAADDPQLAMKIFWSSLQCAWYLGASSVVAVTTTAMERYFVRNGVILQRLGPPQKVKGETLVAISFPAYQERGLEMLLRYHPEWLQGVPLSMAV

Compound | Activity in butyryl HSL bioassay [2, 6] | Activity in radioactive assay [1] | Apparent Vmax [3] | Km [3] [µM] | other results
NC(=O)C1=CN([C@@H]2O[C@H](COP(=O)(O)OP(=O)(O)OC[C@H]3O[C@@H](n4cnc5c(N)ncnc54)[C@H](OP(=O)(O)O)[C@@H]3O)[C@@H](O)[C@H]2O)C=CC1 [NADPH] |  |  |  |  | effect on the reaction rate ([1]; included with butyryl-ACP and SAM): slightly increase
CCCC(=O)SCCNC(=O)CCNC(=O)[C@H](O)C(C)(C)COP(=O)(O)OP(=O)(O)OC[C@H]1O[C@@H](n2cnc3c(N)ncnc32)[C@H](O)[C@@H]1OP(=O)(O)O [butyryl-CoA] | 38 nmoles butyryl HSL formed min^−1 mg^−1 | 82 nmoles butyryl HSL formed min^−1 mg^−1 | 2.1 mol of butyryl HSL min^−1 mol^−1 of RhlI |  | 
CCCCCC(=O)SCCNC(=O)CCNC(=O)[C@H](O)C(C)(C)COP(=O)(O)OP(=O)(O)OC[C@H]1O[C@@H](n2cnc3c(N)ncnc32)[C@H](O)[C@@H]1OP(=O)(O)O [hexanoyl-CoA] |  | 4 nmoles butyryl HSL formed min^−1 mg^−1 |  |  | 
N[C@@H](CCS)C(=O)O [homocysteine] |  |  |  |  | activity, fold less when compared to reactions containing SAM ([2]; butyryl HSL bioassay, amino acid substrate): at least 150 fold; Activity in butyryl HSL bioassay ([2]; potential amino acid substrates, 39 μM butyryl ACP as co-substrate): <2 nmoles butyryl HSL formed min^−1 mg^−1
RhlI (Pseudomonas aeruginosa PAO1) |  |  |  |  | Km [4]: 230 µM
butyryl-ACP: acylated acyl carrier protein with attached butyryl group; acyl substrate of RhlI | 532 nmoles butyryl HSL formed min^−1 mg^−1 | 650 nmoles butyryl HSL formed min^−1 mg^−1 |  | 6 | 
hexanoyl-ACP: acylated acyl carrier protein with attached hexanoyl group | 91 nmoles butyryl HSL formed min^−1 mg^−1 | 263 nmoles butyryl HSL formed min^−1 mg^−1 | 9.6 mol of butyryl HSL min^−1 mol^−1 of RhlI | 8 | 
octanoyl-ACP: acylated acyl carrier protein with attached octanoyl group |  | 28 nmoles butyryl HSL formed min^−1 mg^−1 | 1.8 mol of butyryl HSL min^−1 mol^−1 of RhlI | 43 | Activity in radioactive assay ([1]; listed as Octanoyl-ACP): demonstrated to be a substrate of RhlI; Activity in bioassay (R. solanacearum bioassay) [5]: not detected as a substrate
